What all share (type): biochemical, Quillaja saponaria
Assay [1] can be described thus: Experiment 6-1: screening of rhamnosidases for derhamnosylation of saponins in treated bark extract (2%), desglucosyl-QS-17 2134 to QS-21 1988 (PAR %). The conditions noted are these: TBE 2%, pH 7.5, 30 degC, 18 h; TIC peak area ratio percent, LCMS/MS; negative controls 2.719, 2.158.
The nature of assay [2]: Experiment 6-1: screening of rhamnosidases for derhamnosylation of saponins in treated bark extract (2%), QS-17 2296 to QS-18 2150 (PAR %). The conditions noted are these: TBE 2%, pH 7.5, 30 degC, 18 h; TIC peak area ratio percent of rhamnosylated starting saponin to derhamnosylated product, LCMS/MS; negative controls 4.876, 5.225.
A short description of assay [3]: Experiment 6-1: screening of rhamnosidases for derhamnosylation of saponins in treated bark extract (2%), QS-17 2310 to QS-18 2164 (PAR %). The conditions noted are these: TBE 2%, pH 7.5, 30 degC, 18 h; TIC peak area ratio percent, LCMS/MS; negative controls 3.061, 2.429.
Assay [4] in a line: Experiment 6-2: screening of rhamnosidases for derhamnosylation of saponins in treated bark extract (25%), relative % of Left, Middle and Right Peak by UV HPLC. The conditions noted are these: TBE 25%, pH 7.4, 19.5 h; for Left Peak: mainly QS-17 family, negative control 24%; for Middle Peak: mainly QS-18 and desglucosyl-QS-17 family, negative control 50%; for Right Peak: mainly QS-21 family, negative control 26%.

The nature of assay [5]: Experiment 6-3: screening of rhamnosidases for derhamnosylation of saponins in crude bark extract (80%), relative % of Left, Middle and Right Peak by UV HPLC. The conditions noted are these: CBE 80%, pH 7.4, 30 degC, 19.5 h; for Left Peak: mainly QS-17 family, negative control 27%; for Middle Peak: mainly QS-18 and desglucosyl-QS-17 family, negative control 48%; for Right Peak: mainly QS-21 family, negative control 26%. The protocol: Selected variants were expressed and lysed as in the method of experiment 6-1.
Crude bark extract (CBE) solution was adjusted to pH 7.4 by addition of NaOH (2M). 20 uL clarified lysate was transferred into fresh 96 well PCR plates. 80 uL CBE solution (pH 7.4) was added to each well of lysate to a final concentration of 80%. Plates were incubated at 30 degC with shaking for 19.5 h.
Quenched with 100 uL MeCN+2% AcOH and shaken at room temperature for 10 mins prior to centrifugation (10 min, 4 degC) to remove particulates. Samples were analysed by UV HPLC using method of Experiment 4-4.
Three key peaks of interest are apparent using this chromatography: Left Peak (retention time approximately 2.30-2.35 min) comprising mainly QS-17 family components; Middle Peak (retention time approximately 2.37-2.42 min) comprising mainly QS-18 family components and desglucosyl-QS-17 family components; and Right Peak (retention time approximately 2.44-2.50 min) comprising mainly QS-21 family components. Peak identity was supported by MS/MS.
Enzyme mediated hydrolysis of the alpha-O-rhamnosylation at the C2 position of the arabinofuranose moiety of QS-17 family components leads to a decrease in Left Peak and an increase in Middle Peak due to formation of QS-18 family components. Enzyme mediated hydrolysis of the alpha-O-rhamnosylation at the C2 position of the arabinofuranose moiety of desglucosyl-QS-17 family components leads to a decrease in Middle Peak and an increase in Right Peak due to formation of QS-21 family components.
The relative percentage of each peak was determined. A decrease in Left Peak and a concomitant increase in Middle Peak and Right Peak is observed for enzymes active under these conditions.

A short description of assay [6]: Experiment 6-1: specificity of rhamnosidases towards other rhamnose residues (C3 saccharide rhamnose, C28 saccharide rhamnose). The conditions noted are these: TBE 2%, pH 7.5, 30 degC, 18 h; LCMS/MS; negative controls 0.18, 0.17.

B1: 1055 (protein)
chain: MRKAMILLTACLLSGTSALAADTLRDGFQTPPDSAKPRVWWHWLGNNVTADGIDKDLAWMRRVGIGGFQLFSGNLETPLLVDKPVVVFSPEWRAMVRHAAERADALGLEMTMAASAGWSETGGPWVKPEQAMKKLVWSETVITGAKRFQGRLPSPPTGNGPFQDMPMPPELRLPPPPPVPGARPRPPAAAHGPSPSYYADVAVVAYRLPDAVVPLGSLKPRISSSAGDAAILSDGRYDAPLRLEQKTPDGQLAWVEYTFDKPVSLPAVTLAATIEDPLNALSPSGVVEVADENGTFRDLVRVAPQEPVAFPAAAPVRTVALPEASSRRWRFRLDPIPPQALALPGMPQQTVHAVTELRFETEAMVDRWQAKAAYDTMRSYDTGPQPVRPVPARDQVVNLTARIGADGTLDWTPPPGRWQVLRIGYSLTGAKNHPADPEGTGFEVDKLDAAAVRAYLEGYLGPIDQALGDLRGAKGLKNLLTDSWEAGQANWTPALPAEFKRRRGYDLTPWLPVLTGRVVGSAADSERFLWDFRRTIADLLAEAHYKTIRDFAHEKGLGYYGEAMGTRLPTTGDGLLNKRYTDIPMGEFWQMPPGAPSDPAHTSDIAEAASAAHFYGQNLVAAEAFTALPFMPPFTATPAALKPFADRFLARGVNRFVIHTSVHQPSDDLRPGITLGPFGQYFTRHETWAEQAGAWMSYLSRSSYLQQQGRHVADIAWFVGEGGAISAPDPDRLSPALPKGYRLDFVARDAVTELLSVKDGHLLAPSGVVYRLLVVPPDARSGDLKLSLAVLRRLRDLLNQGAAVLAPRPTGSTSLSDDPAQVAALIGELWGVDTPIPRSIGKGRLYPAPDIAAALADRGVAPDLTMAGAMDADIVWSHRRTDDADIWFVANQKDRAESVTLSLRGDGRDVSLWHADSGAVEPAPFRQEAGRTSVPLTLSPNQAIFIVQRGSAPATARDVATPVEAESLALSGVWTLFFPKGQAMPDSVPLPKLGLWNDMSDPAVRHFSGTATYATEVKLPAAWAGKPVWIDLGAVHEVATVRVNGTEAGIAWKQPYRIDVGPLLKAGTNKLEVAVSNLWPNRIVGDAGGAGGVRVTTNTHPLLHPDTKARLLPSGLAGPVRLVRMELPGGNG
modifications: alpha proteobacterium
Consider B1, for which, in assay [1], the “Peak75 (PAR %)” value is given as 0.000%. In assay [2], the “QS-17 (PAR %)” value was determined as 0.019%. The “Peak57 (PAR %)” value in assay [3] stood at 0.000%. Further, in assay [4], the “Left Peak” value is given as 7%, the “Middle Peak” value is recorded as 62% and the “Right Peak” value was 31%. In addition, in assay [5], the “Left Peak” value turned out to be 25%, the “Middle Peak” value came to 48% and the “Right Peak” value was 27%. Besides, the “ratio PP/QS-21” value in assay [6] is reported as 0.19.

B2: 1075 (protein, listed as Asticcacaulis sp.)
chain: MTRLNRRHFLAASGLAATVAPTMSRSKTLAKTALGVTDLRAEQSENLLGTQAREPRLSWRLTGTERGIMQAGYRLRAGSKPGTADLWDSGNIASDACFDIPYKGKPLNAMQRVWWTVEVRDAKGRTATSAPAWFETGLLAPGDWKAQWIVAEDALAEGDRKAGLQWIWSEKALDNRLHAFRLDFDVPANLASSEVLIAGKDWIRGVWANGEQLPTPDQLVPNWGTLVPVPAKLKPGKNSVCVLVQAETTGFFPVDGGAFAALIRLRLSDGTIKRLVSDTNWKVRPLPPEAWTTADFDASGWVRAQKSGADAQNDPRPAEPAMLLRKAFTPAKKVVNARLYATALGAYEARLNGQPVSTAKMAPEISVTKDHIYYQTYDVTKLIRAGDNALGVVMGDGFYASAFGWRLERYGFGPAPRRLLAQLRLDYADGTSEWIVTDDSWRIGQSPIVTSEIYDGEVFDARLKTDGWDKTGFNAARWPAVRLGQAPHTKIVAQTGPLLVPVSKRRGTITQPKPGIYVIDFGQNFAGWARLNVKGTSGHTVTLKFAEYLKADGEVDQANLRMAKCRDIYTLRGDAGGETFEPSFTYHGFRYVQVENFPGVPTPADIEGIVVTSYCRETGRMTFDDPIIQKFWQNSVWSQRSNFFMVPTDCPQRDERMGWMGDIQVFLDAATFNMECDPFIRRYLDEVRASQTAEGAFPIVCPQPESFPEVTTAGWSEAGVILPWTLWRRYGDTAVIDENWVAMTKWMDYLFKYNPDYVWRKERGLDLGDWLSVDAVKPDDETTPRILCATGYWAYCADLMTQMAAATGREAEAAKYREVRAKIGAAFAKEFVDKDGKAGNGSQTSQILALYFNLVPAERRAAAGEILAKEIRGRGMKLSTGFLGTPYLLDVLADTGHLEEVSGLLKQREKPSWGYMPLKGATTMWERWDGDTGDLAMNSYNHYAYGAVCGFMYRRLAGLAPAAPGFRKMTVEPIYLPHVGKVTANYESCLGTMAGAVTGNASGLKTYDLTVPPNAVAEVILPDGAWREGGKALTGHADIRALRRDSGKVRFEVGSGSYRFKI
As to B2, in assay [1], the “Peak75 (PAR %)” value worked out at 0.000%. For the same molecule, the “QS-17 (PAR %)” value in assay [2] worked out at 0.043%. Also, the “Peak57 (PAR %)” value in assay [3] turned out to be 0.000%. Besides, in assay [4], the “Left Peak” value is recorded as 9%, the “Middle Peak” value was 61% and the “Right Peak” value is reported as 30%. In addition, in assay [5], the “Left Peak” value is listed as 26%, the “Middle Peak” value is recorded as 47% and the “Right Peak” value worked out at 27%. Further, the “ratio PP/QS-21” value in assay [6] turned out to be 0.18.

B3: 1007 (protein, listed as Modestobacter marinus)
chain: MSDPTVTVVRLRTDDDSGLTATANATPRLSWSLAADRSGVLQRGYEVQVAPDPGFADPVSSGEVDSDVVVDHDWPAAPLTSRQVAYWRVRVRTDQGWTAWGEPACVEAALLEDADWTARPVFLAGDRGRDGVGPAPLLRREFELPAEPVSARLYLTALGVHRTTLNGRPVGDELLEPGWTSYRDRLLYATHDVTALLRAGRNVLAGSVGDGWFRGNLGWDRLRDFYGDASALLAQLEVRCADGSTVTVSTDEHWRGGYGAVRAADLYDGCDIDLREEPVGWAEAGFDDAGWEPVGTLPLPAGLSQRALPPVRVLQEIEPQVSELSDGTLAVDAGQNVTGWLRLRVTGPSGARVTVRHAEVLDEKGRLVTTLLRSARATDTVVLAGGTADLEPEFTFHGFRYAEVEVPPGVTVDAVRVAVVASDLRRTGQFSCSNPRVDQLFSNVIWSQRDNFLSIPTDCPQRDERLGWTGDIMAFAPTAAANFDSRAFLDSWLTDVGIEQLPSGGVPMVVPNCLTGEFPSPLPQADGAAGWADAVTVVPAALFRAHGSRDLLRRHVGSMQRWVDYVAGLLAEDGTWSGYLQLGDWLDPNAPPERPFEAVTDRDYVATVFVAHSARLLAATCRELGRGPDADRYAALGDRVAQAAWAKWADLAPTTQTGCALAIVFGSAPDAELPALGDALAGLVRASGGRIGTGFLGTPFVLPALTATGHLAEAYQLLLNEECPGWLYQIRHGATTMWERWDGILADGSVHPGQMADGSTMSSFNHYAYGAVASWLYESVAGLSPAAPGYREVLVAPQPGGGLTRAAASIETEYGPASVGWSTDGATLTVDVTLPPGTTGRFAVPAGWSPQQPVALLGSGQHTLLLTGAGA
Take B3: the “Peak75 (PAR %)” value in assay [1] worked out at 0.043%. Moreover, the “QS-17 (PAR %)” value in assay [2] is reported as 0.104%. For the same molecule, in assay [3], the “Peak57 (PAR %)” value amounted to 0.009%. Further, in assay [4], the “Left Peak” value came to 8%, the “Middle Peak” value is reported as 62% and the “Right Peak” value is listed as 30%. In addition, in assay [5], the “Left Peak” value came to 24%, the “Middle Peak” value is reported as 49% and the “Right Peak” value worked out at 27%. The “ratio PP/QS-21” value in assay [6] is listed as 0.19.

B4: 1001 (protein, listed as Brachybacterium faecium)
chain: MNSAPASPADTPSAGAGRPAAQLQDALAITAVEDTGRLPQLVHTVTLAQPRDQVRRAELLATAHGLYEMRIGGAPATESVLNPGWTTYERRLQVQRLDVTAQVRQRPEGLAAADADRLDLEATLADGWWRGDLGFDGGVRYGDDLALLAAVEIEFADGTRQRVVTDESWRSRPSAIMSANIYHGQHEDRRLGLGPETPVRVVEIDRSTLVEQVSPPVLRHESRRPERIWTSPAGRTLVDFGQNLVGWLRFTVTGPEGTEIVLRHAEVLEDGELGTRPLRAARATDRLVLAGDPAGETFEPTFTFHGFRYAEISGWPGELAAEDLEAVVVHSALRRTGWFECSHAGVNQLISNSLWSQRGNFLSVPTDCPQRDERLGWTGDIAAYAATAAFQHDVGDFLHGWLLDLGQEARMNPHGIVPFVVPDLLKPGLGAGDPAAADEGWGTPTAIWGDAAVWVAEALWTAYGDLDRLRAHYPAMVRHLDSVDRALSPSGLWDTGFQFGDWLDPDAPPEAADRAKADKGVVATACLVRSARFAAQAARLLGEEVDARRWQGLAERTLAAFTTAYVHENGTITSDCATVYALAIAFDLLDAGTRPRAAARLAEVVAEAGHRVSTGFAGTPFVTWALSETGHVEEAYRLLLEEGCPSWLYPVSMGATTIWERWDSMLPDGSINPGEMTSFNHYALGAVADWVYQVVLGVRPAAPGYRRIRIQPVPGPGIEWAEGAHDSAAGRIEVSWEHSADGLRGTATIPEGAEAEIVLPDGRARTVGPGRHSF
In the case of B4, the “Peak75 (PAR %)” value in assay [1] turned out to be 0.137%. The “QS-17 (PAR %)” value in assay [2] is on record as 0.075%. For the same molecule, the “Peak57 (PAR %)” value in assay [3] amounted to 0.000%. Further, in assay [4], the “Left Peak” value came to 14%, the “Middle Peak” value is reported as 59% and the “Right Peak” value was found to be 27%. Besides, in assay [5], the “Left Peak” value came to 31%, the “Middle Peak” value is reported as 45% and the “Right Peak” value came out at 24%. In addition, in assay [6], the “ratio PP/QS-21” value stood at 0.19.
